Measured values reported in paper PMC314469, “Protein Interaction Networks by Proteome Peptide Scanning” (PLoS Biology, 2004).

T1: Abp1 SH3 (ABP1_YEAST), P15891
T1 chain: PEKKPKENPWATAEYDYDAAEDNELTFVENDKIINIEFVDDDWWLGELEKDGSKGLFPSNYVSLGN


Target: T1, Abp1 SH3 (ABP1_YEAST), P15891
Test: SPOT array

Binder	normalised SPOT signal, Boehringer light units (BLU); mean over the file's lines of this peptide
EPASVYESNGPNKP [YMR086W 699-712]	18.6
EKFRVNRPIQLRP [YHL038C 520-532]	1490
ERLERQFEEVPFRP [YPL027W 171-184]	201
EPVTKERPHFNKP [YER161C 148-160]	534
ERRKQLKKQGPKRP [YKL032C 351-364]	77.9
ELQNEDWPNESKP [YNL274C 336-348]	24
ENYLSTRPSVLKP [YOR217W 594-606]	84.9
ESKLSSLIIPPSKP [YJL193W 97-110]	105
ELNLKLLNLFPSKP [YGR134W 1043-1056]	164
ETLWDLPPKFPEKP [YDR444W 182-195]	55.6
EKHELIIPTPSKP [YCL027W 384-396]	140
ESKMSLAPHEYKP [YGR097W 219-231]	97.4
EPPQDQAPSLPPKP [YCL008C 154-167]	156
ENPIDKLDGTPKRP [YIL063C 22-35]	21.5
ELFIIIQPPVMKP [YIR007W 413-425]	98.8
EKEKEKSPEISKP [YNR051C 181-193]	67.3
ETQPIQNFQPPPKP [YBR108W 650-663]	82.5

Binder	normalised SPOT signal, Boehringer light units (BLU); mean over the file's lines of this peptide
EQEEFTSPYFGRP [YIL031W 818-830]	67.4
EVVKILRESNPPRP [YJR010W 379-392]	39.2
ERPLPDLPSTIKP [YKR027W 750-762]	106
ESLNLQFQAHPPKP [YKR050W 395-408]	27.2
ELRGLDDPTIVKP [YGR099W 548-560]	152
ETVTNSGGLQPLKP [YOR329C 474-487]	54.3
EKASRFRPTIDRP [YJL196C 11-23]	910
ENEPTLNPFTNKP [YJR122W 411-423]	138
ESFRERPLEPPRKP [YDR448W 139-152]	675
EVRKVYIPKVVKP [YJR143C 526-538]	250
EPKMQKQTIFPGKP [YHL022C 194-207]	619
ELKERDFDQAPLKP [YCR088W 207-220]	89.2
EMYQDKLPPNVKP [YHR190W 379-391]	143
FASKVNYPVLIRP [YJR109C 723-735]	156
ESIDASKPEKVKP [YFL025C 369-381]	132
ENAVKSEQQFPGRP [YOR347C 67-80]	80.3

Continued, values first:

normalised SPOT signal, Boehringer light units (BLU); mean over the file's lines of this peptide	Binder
146	ESLKLYYRHRPQKP [YOL164W 141-154]
73.8	FASDSLLDLSPIKP [YCL018W 111-124]
87.1	ENRKGEKDAAPAKP [YGL061C 171-184]
51.6	EQAPTGLVLEPSKP [YBR284W 656-669]
115	FSYPISSPINFKP [YPR164W 96-108]
615	ETGVSIKNPRPSRP [YPR096C 4-17]
52.7	EYLDQKNPQKEKP [YDR293C 662-674]
87.7	EQIVLGQPKTNRP [YDR062W 281-293]
101	FDGKPTATPSPFRP [YMR153W 197-210]
155	EYKYSRPPYNFKP [YBR043C 498-510]
126	EQKLPTALLSPLRP [YCL051W 196-209]
86.6	EVRDLWLSILPTKP [YBR115C 851-864]
147	ESASHETPTDLRP [YKL204W 262-274]
61.2	EYGHHARPDSKRP [YMR268C 2-14]
38.6	EKVYRTEEKAPIRP [YDL203C 183-196]
85.3	FAEKVGYPVLVRP [YJL130C 1124-1136]
130	ELQKRVGPDNFKP [YKL155C 149-161]
10400	ERLQSQPPRPPRP [YGR268C 21-33]
488	ERSKNLIPPAFRP [YGL173C 598-610]
48.8	ESFSSGSLSPPSRP [YDR348C 88-101]
70.8	EVPMFVNPANAKP [YHL038C 181-193]
127	ENEFQVIPIRFKP [YER085C 144-156]
182	EKGQALVVFSPHRP [YLR285W 193-206]
136	ETELGHVPLVERP [YDL079C 472-484]
124	EKTGNAHPLGFRP [YPR016W-A 66-78]
